Assay results as given in patent US20230002496A1 (STAIDSON BEIJING BIOPHARMACEUTICALS, published 2023).
Positions count from the first letter of the chain named.

T1: human GM-CSFRα-6His (human, UniProt P15509 23-320)
T1 construct: pTT5-GMRa-6his (ECD), made in 293F cells; also called GMRah; GMRa-6his(ECD)
T1 sequence: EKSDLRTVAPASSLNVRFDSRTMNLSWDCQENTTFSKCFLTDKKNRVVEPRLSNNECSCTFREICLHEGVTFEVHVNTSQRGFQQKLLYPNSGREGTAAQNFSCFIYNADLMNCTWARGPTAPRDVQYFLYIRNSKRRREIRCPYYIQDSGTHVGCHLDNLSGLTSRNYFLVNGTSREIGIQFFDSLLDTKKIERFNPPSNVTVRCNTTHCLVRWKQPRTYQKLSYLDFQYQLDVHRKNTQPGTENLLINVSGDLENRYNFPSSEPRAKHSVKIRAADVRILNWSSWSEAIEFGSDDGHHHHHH

T2: human GM-CSFRα, full length on cells (human, UniProt P15509 23-400)
T2 sequence: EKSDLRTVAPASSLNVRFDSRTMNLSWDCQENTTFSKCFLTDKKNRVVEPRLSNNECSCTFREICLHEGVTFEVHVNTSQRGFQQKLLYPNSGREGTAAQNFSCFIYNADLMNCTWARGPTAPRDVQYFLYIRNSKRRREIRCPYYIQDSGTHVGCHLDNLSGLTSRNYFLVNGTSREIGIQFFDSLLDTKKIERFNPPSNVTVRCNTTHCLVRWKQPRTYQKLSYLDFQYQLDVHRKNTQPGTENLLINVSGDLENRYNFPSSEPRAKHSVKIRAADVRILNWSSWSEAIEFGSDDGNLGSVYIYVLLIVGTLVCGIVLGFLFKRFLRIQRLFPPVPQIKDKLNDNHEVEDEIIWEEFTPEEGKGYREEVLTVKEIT

B1: E105-IgG1 (antibody, V domains shown)
VH: QMQLVQSGAEVKKPGASVKVSCKVSGYTLTELSIHWVRQAPGKGLEWMGGFDPEDGETIYAQKFQGRVTMTGDTSTDTAYLELSSLRSEDTALYYCATGRYTSLMFTYGFDYWGQGTLVTVSS
VL: EIVMTQSPATLSLSPGERATLSCRASQSVSSYLAWYQQKPGQAPRLLIYGASSRATGIPDRFSGSGSGTDFTLTISRLEPEDFAVYYCQQYNNWPPTFGQGTKLEIK
notes: human IgG1, human kappa
B2: EII55-IgG1 (antibody, V domains shown)
VH: B1 VH with P53G, E54D, D55W, G56H, M105D, F106A
VL: B1 VL with N92G, W94R, P96D
notes: human IgG1, human kappa
B3: E113-IgG1 (antibody, V domains shown)
VH: B1 VH with F64S, S103E, M105F, F106A, T107S
VL: B1 VL with P96Y
notes: human IgG1, human kappa
B4: E40-IgG1 (antibody, V domains shown)
VH: B1 VH with Y27H, M105D, F106E, T107S
VL: B1 VL with N92D, W94S, P96Y
notes: human IgG1, human kappa
B5: E39-IgG1 (antibody, V domains shown)
VH: B1 VH with Y27H, T102C, L104S, M105D, F106L, T107C
VL: B1 VL with N92D, W94S, P96H
notes: human IgG1, human kappa
B6: E200a-IgG1 (antibody, V domains shown)
VH: B1 VH with S33P, I34M, S103I, L104I, M105T, F106T, T107N
VL: B1 VL with N92D
notes: human IgG1, human kappa
B7: E85-IgG1 (antibody, V domains shown)
VH: B1 VH with F64S, T102S, L104Y, M105F, F106T, T107N
VL: B1 VL with P96Y
notes: human IgG1, human kappa
B8: E87-IgG1 (antibody, V domains shown)
VH: B1 VH with F64S, T102V, M105F, T107N
VL: B1 VL
notes: human IgG1, human kappa
B9: E113-IgG4 (antibody, V domains shown)
VH: B1 VH with F64S, S103E, M105F, F106A, T107S
VL: B1 VL with P96Y
notes: human IgG4, human kappa
B10: E90-IgG4 (antibody, V domains shown)
VH: B1 VH with F64S, S103G, M105Y, F106A, T107S
VL: B1 VL with N92D, P96Y
notes: human IgG4, human kappa
B11: E200a-IgG4 (antibody, V domains shown)
VH: B1 VH with S33P, I34M, S103I, L104I, M105T, F106T, T107N
VL: B1 VL with N92D
notes: human IgG4, human kappa
B12: E94-IgG4 (antibody, V domains shown)
VH: B1 VH with Y27H, I34M, T102C, S103E, L104T, M105D, F106I, T107C
VL: B1 VL
notes: human IgG4, human kappa
B13: EII33-IgG4 (antibody, V domains shown)
VH: B1 VH with P53G, E54D, D55G, G56E, M105A, F106A
VL: B1 VL with N92R, P96F
notes: human IgG4, human kappa
B14: EII52-IgG4 (antibody, V domains shown)
VH: B1 VH with P53G, E54D, D55I, G56E, M105A, F106T
VL: B1 VL with N92A, W94P, P96N
notes: human IgG4, human kappa
B15: E35-VH28E-VL30C-IG4 (antibody, IgG4, V domains shown)
VH: B1 VH with T28E, M105A, F106T
VL: B1 VL with S30C, N92D, P96Y
B16: E35-VH28H-VL30L-93D-IG4 (antibody, IgG4, V domains shown)
VH: B1 VH with T28H, M105A, F106T
VL: B1 VL with S30L, N92D, N93D, P96Y
B17: E35-VH28E-VL30L-IG4 (antibody, IgG4, V domains shown)
VH: B1 VH with T28E, M105A, F106T
VL: B1 VL with S30L, N92D, P96Y
B18: E35-VH28H-VL30L-IG4 (antibody, IgG4, V domains shown)
VH: B1 VH with T28H, M105A, F106T
VL: B1 VL with S30L, N92D, P96Y
B19: E35-VH28H-VL30C-IG4 (antibody, IgG4, V domains shown)
VH: B1 VH with T28H, M105A, F106T
VL: B1 VL with S30C, N92D, P96Y
B20: E09-IgG1 (antibody, V domains shown)
VH: B1 VH with Y27H, I34M, T102C, S103G, L104H, M105A, F106S, T107C
VL: B1 VL
notes: human IgG1, human kappa; also called E9
B21: E54-IgG1 (antibody, V domains shown)
VH: B1 VH with I34M, T102S, L104Y, M105D, F106I, T107A
VL: B1 VL with N93S, W94S
notes: human IgG1, human kappa
B22: E34-IgG1 (antibody, V domains shown)
VH: B1 VH with T102S, S103F, L104T, M105D, F106L, T107A
VL: B1 VL with N92D, N93S, W94S
notes: human IgG1, human kappa
B23: E27-IgG1 (antibody, V domains shown)
VH: B1 VH with T102I, L104F
VL: B1 VL
notes: human IgG1, human kappa
B24: E29-IgG1 (antibody, V domains shown)
VH: B1 VH with Y27H, T102C, S103F, L104P, M105D, F106T, T107C
VL: B1 VL with N92D, W94S, P96H
notes: human IgG1, human kappa
B25: E16-IgG1 (antibody, V domains shown)
VH: B1 VH with T58A, F64S, T102S, S103E, L104H, M105S, F106T, T107S
VL: B1 VL with N92D, N93S, P96Y
notes: human IgG1, human kappa
B26: T119-IgG1 (antibody, V domains shown)
VH: B1 VH with Y27H, I59N, F64S, T102C, L104T, M105D, F106T, T107C
VL: B1 VL
notes: human IgG1, human kappa; parent antibody
B27: E30-IgG1 (antibody, V domains shown)
VH: B1 VH with Y27H, T102C, L104T, M105D, F106T, T107C
VL: B1 VL with N92D, W94S, P96H
notes: human IgG1, human kappa
B28: E01-IgG1 (antibody, V domains shown)
VH: B1 VH with Y27H, I59N, F64S, T102C, L104T, M105D, F106T, T107C
VL: B1 VL with N92D
notes: human IgG1, human kappa; also called E1
B29: E172-IgG1 (antibody, V domains shown)
VH: B1 VH with I34M, T102A, S103N, M105Y, F106N, T107N
VL: B1 VL
notes: human IgG1, human kappa
B30: E90-IgG1 (antibody, V domains shown)
VH: B1 VH with F64S, S103G, M105Y, F106A, T107S
VL: B1 VL with N92D, P96Y
notes: human IgG1, human kappa
B31: E31-IgG1 (antibody, V domains shown)
VH: B1 VH with F64S, T102S, S103E, L104S, M105F, F106A, T107S
VL: B1 VL with N92D, P96Y
notes: human IgG1, human kappa
B32: E61-IgG1 (antibody, V domains shown)
VH: B1 VH with I34M, T102A, S103W, L104T, M105D, F106I, T107A
VL: B1 VL with N92D, W94S, P96S
notes: human IgG1, human kappa
B33: E84-IgG1 (antibody, V domains shown)
VH: B1 VH with I34M, F64S, S103R, L104G, M105W, T107N
VL: B1 VL with P96Y
notes: human IgG1, human kappa
B34: E83-IgG1 (antibody, V domains shown)
VH: B1 VH with F64S, T102C, S103F, L104Y, M105D, F106L, T107C
VL: B1 VL with N92S, W94S
notes: human IgG1, human kappa
B35: E88-IgG1 (antibody, V domains shown)
VH: B1 VH with Y27H, I34M, T102C, S103H, L104K, M105D, F106G, T107C
VL: B1 VL with N92D, N93S, W94S, P96H
notes: human IgG1, human kappa
B36: E164-IgG1 (antibody, V domains shown)
VH: B1 VH with Y27H, I34M, F64S, S103N, L104D, M105F, F106A, T107N
VL: B1 VL with P96Y
notes: human IgG1, human kappa

These binders were tested against T1, human GM-CSFRα-6His (assay: ELISA on human GM-CSFRα, antibodies as human IgG1; x axis 'Log Ab concentration', no unit).

Row | Binder | binding result
1 | B1 | binds
2 | B2 | binds
3 | B3 | binds
4 | B4 | binds
5 | B5 | binds
6 | B6 | binds
7 | B7 | binds
8 | B8 | binds

Each binder was assayed against T1, human GM-CSFRα-6His (assay: competitive ELISA, title on the sheet 'Blocking GMRah binding to GM-CSF'; antibody (human IgG4) titrated; blocked ligand GM-CSF; x axis 'Log Ab concentration', no unit).

Row | Binder | binding result
9 | B9 | binds
10 | B10 | binds
11 | B11 | binds
12 | B12 | binds
13 | B13 | binds
14 | B14 | binds

These binders were tested against T2, human GM-CSFRα, full length on cells (assay: cell-based or functional assay).

Row | Binder | IC50, TF-1 cell proliferation [µg/mL]
15 | B15 | 0.0208
16 | B16 | 0.0241
17 | B17 | 0.0268
18 | B18 | 0.0296
19 | B19 | 0.0431

Target: T1, human GM-CSFRα-6His
Assay: ELISA on human GM-CSFRα, antibodies as human IgG1; x axis 'Log Ab concentration', no unit
Remark: another data set of the same source

Row | Binder | binding result
20 | B20 | binds
21 | B21 | binds
22 | B22 | binds
23 | B23 | binds
24 | B24 | binds
25 | B25 | binds
26 | B26 | binds
27 | B27 | binds

Target: T1, human GM-CSFRα-6His
Assay: as above
Remark: another data set of the same source

Row | Binder | binding result
28 | B28 | binds
29 | B29 | binds
30 | B30 | binds
31 | B31 | binds
32 | B32 | binds
33 | B33 | binds
34 | B34 | binds
35 | B35 | binds
36 | B36 | binds
